In US20240240160A1, “NOVEL OLIVETOL SYNTHASES FOR C[…]” (priority 2021, published 2024):

Tested on: E. coli derivative strain which overexpressed an acyl-CoA synthetase (fadD) gene and expressed an olivetolic acid cyclase (OAC) from Cannabis sativa
Test: OL, OLA and PDAL production in E. coli from plasmid-expressed Type-III PKS genes
Assay type: cell-based
Settings: gene on plasmid; for Total: OL + OLA + PDAL; for OL / OLA / PDAL: constitutive promoter, culture spiked with 4 mM hexanoic acid
Description: To test olivetolic acid production in E. coli, strains comprising a putative OLS gene and an OAC gene from C. sativa were inoculated in multi-well plates containing LB supplemented with 1% glucose and appropriate concentrations of antibiotics. After 6 hours of cultivation at 32° C., the cells were transferred with a 10% inoculum to a P-limited seed medium (see Table 2) and cultivated for ˜18 hours at 32° ° C. to reach an OD of 2.0-4.0. The cultures were transferred with a 20% inoculum in a P-minimal medium (see Table 3) supplemented with 2% glucose and appropriate concentrations of antibiotics. After 3 hours of cultivation at 32° C., the culture was spiked with 4 mM hexanoic acid (˜OD 1.5-2.0). The resulting cultures were then harvested at either 3 hours or 21 hours post hexanoic acid spike; a final OD was taken. 300 μL of butyl acetate containing 500 mg/L undecanoic acid was added to each multi-well plate. The plates were then vortexed for 30 minutes at 1500 rpm and centrifuged for 10 minutes at 4500 rpm. 50 μL of organic layer was transferred to a 96-well plate and derivatized with 50 μL of N,O-Bis(trimethylsilyl)trifluoroacetamide (BSTFA). The plate was then incubated at room temperature for 2 hours to allow for complete derivatization. The samples were then run on GC-FID for analytical quantification of olivetolic acid (OLA), olivetol (OL), PDAL, and hexanoic acid.
Olivetol, PDAL, OLA, HTAL, CBGA and combinations thereof were analyzed by LCMS or LCMS/MS methods using C18 reversed phase chromatography coupled to either EXACTIVE™ (ThermoFisher) or QTRAP® 4500 (Sciex) mass spectrometers.
For reversed phase LCMS, compounds were identified by their LC retention times and MRM transitions specific to the compounds. LCMS/MS analysis was conducted on a Shimadzu UHPLC system coupled with AB Sciex QTRAP 4500 mass spectrometer. Agilent Eclipse XDB C18 column (4.6×3.0 mm, 1.8 μm) was used with a 1-min gradient elution at 1 mL/min using water containing 0.1% ammonia acetate as mobile phase A and 90% methanol containing 0.1% ammonia acetate as mobile phase B. The LC column temperature was maintained at 45° C. Negative ionization mode was used for all the analytes.
The genes for 20 Type-III PKS enzymes were codon optimized for E. coli and cloned under control of a constitutive promoter into an expression vector (p15a replicon, carbenicillin resistance marker). The 20 plasmids were transformed into an E. coli derivative strain which overexpressed an acyl-CoA synthetase (fadD) gene and expressed an olivetolic acid cyclase (OAC) from Cannabis sativa.
The in vivo assay procedure and analytical methods were performed as described above.

| Molecule | Total | OL | OLA | PDAL | levels of OLA relative to the E. coli strain with OLS from C. sativa |
| --- | --- | --- | --- | --- | --- |
| PKA53998.1: Type-III PKS enzyme from Apostasia shenzhenica (protein, listed as Apostasia shenzhenica, (1)..(393) PKA53998.1) MPGLQIISKASSRAADGLAAILAIGRANPPNSMDQSSYPEFYFRVMDSDHLVDLKKKFQRICERTAIRKRHFVWNEELLRDNPCLRTFMDSSLNVRQKVAVAEIPKLGAAAAERAIEEWGQPRSGITHLIFCTTSGMDLPGADYQLTKILGLNADVQRVMLYQQGCFAGGTVLRLAKVLAESRKGARVLVVCAETTTVLIRAPSVEHQDDLVTQALFADGASALIVGADPVEEVNERPLFSIISASQVILPDSDGAIGGHLGEGGLTATLHRDVPLIISKNVSKCLEDAFSPLGISDWNSIFWAPHPGGRAILDQVEERVGLKPEKMWASRHVLAEYGNMSSVCVHFVLDEMRKRSAKEGKPTTGEGLEWGVLFGFGPGLTVETVVLRSHPIN | 1005 µM | 268 µM | 256 µM | 481 µM |  |
| XP_020591420.1: Type-III PKS enzyme from Phalaenopsis equestris (protein, listed as Phalaenopsis equestris, (1)..(387) XP_020591420.1) MPNMESIKKEDGLATIMAIGRALPPNSIDQNSFPDFYFRVHNSEHLMDLKNKFRRICERTAIRKRHFVWNEEVLKQNPCLRTFMEPSLNTRQEIVCSEIPKLGAEAARNAIREWGQPERSITHLIFCTTSGMNLPGADFEAAQILGLNHSVERVMLYQQGCFAGGTVLRLAKCLAESRRGARVLVICAESTTSLVRSPSREHQYDLIAQALFADGASALIIGTEPNAEAGERPIFSIFSTAQVTLPDSGDAIRGYLKEGGLIATLAKDVPLIISENIERCLQEAFGPLGISDWNSIFWAPHPGGRAILDGIEDKLGLKPEKLWAARHVLAEYGNMSSVCVHYILDEMRRRDVKNGKAPTGDGPEWGVLFGFGPGLTVETVVLRRLFL | 468 µM | 54 µM | 36 µM | 378 µM |  |
| CAA10514.1: Type-III PKS enzyme from Bromheadia finlaysoniana (protein, listed as Bromheadia finlaysoniana, (1)..(394) CAA10514.1) MASQVSPPSINMAPKADGFASILAIGRANPKNFIEQSTFPDFFFRVTNTEHMVDLKKKFQRICDKTSIRKRHFIWNEELLTANPSLCTFMGNSLNLRHEVAVREIPKLGAEAATKAIQEWGQPKSFITHLVFCTTSGMDLPGADYQLTQILGLNLDIERVMLHQQGCFLGGTTLRLAKYLAESRKGARVLVVCAETTTEFFRAPSEEHQEDLVTQSLFGDGASALIVGADPHEGARERASFILVSSSQVLLANSAHAITGHVSEGGIKATLHRDVPQIISNNLGKCLEEAFTPLGISDWNSIFWVLHPGGRAILDQVEEKMGLEPEKLLISRHVLLEYGNMSSVCVHFALDEMRKRSSNEGKATTGEGLEWGVLFGFGPGLTIETVVLRSVSIS | 61 µM | 0 µM | 0 µM | 61 µM |  |
| XP_020704098.1: Type-III PKS enzyme from Dendrobium catenatum (protein, listed as Dendrobium catenatum, (1)..(390) XP_020704098.1) MPSLESIKKAPRADGFASILAIGRANPENFIEQSAYPDLFFRITNSEHLVDLKNKFKRICDKTAIRKRHFVWTEEFITANPCFSTFMDKSLNIRQEVAIREIPKLGAEAATKAIQEWGQPKSRITHLIFCTTSGMDLPGADYQLTQILGLNPNVERVMLYQQGCFAGGTTIRLAKCLAESRKGARVLVVCAETTTVLFRGPSEEHQDDLVTQALFADGASALIVGADPDEAADEHASFVIVSTSQVLLPDSAGAIGGHVSEGGLLATLHRDVPQIVSKNVGKCLEEAFTPLGISDWNSIFWVPHPGGRAILDQVEESVGLKPEKLFISRHVLAEYGNMSSVCVHFALDEMRKRSAKEGKATTGEGLEWGVLFGFGPGVTVETVILRSVPI | 1072 µM | 432 µM | 390 µM | 250 µM |  |
| AFU07719.1: Type-III PKS enzyme from Paphiopedilum purpuratum (protein, listed as Paphiopedilum purpuratum, (1)..(394) AFU07719.1) MPGLENRKKVEAPKRAEGLATILAIGRANPPNDMEQSTFPDFYFRVTNSEHLVSLKKKFERICEKTAIRRRHFVWNEEILNANPCLRTHMEPSLNVRQKIAVAEIPKLGAEAASRAIEEWGQPKSHITHLIFCTTSGMDLPGADYKLTRILGLNPNVQRVMLYQQGCFAGGTVLRLAKCFAESQKGARVLVVCSETTTVLVRAPSEDYQDDLVTQALFADGASALIVGADPDEEAKEQPIFTIVSATQVILPDSDGAIGGHLGEGGLTATLHRDVPLIISKNVSKCLEEAFGPLGISDWNSIFWAPHPGGRAILDQVEERVGLKPEKLWASRHVLAEYGNMSSVCVHFVLDEIRKRSTKEGKTTTGEGFDWGVLFGFGPGLTVETVILRSVPLN | 1406 µM | 289 µM | 302 µM | 815 µM |  |
| AAX54693.1: Type-III PKS enzyme from Phalaenopsis hybrid cultivar (protein, Phalaenopsis hybrid cultivar; (1)..(390) AAX54693.1) MPTIESIKKAPRAHGFASILAIGKANPENFIEQCHYPDFYFRVTSSEHLVDLKEKFQRMCDRTAIRKRHFVWNEDLLTANPCLRTYMDKSLNIRQEVAIREIPKLGAEAATKAIQEWGQPKSSITHLIFCTTSGMDLPGADFQLTQILGLNPNVERVMLYQQGCFAGGTTLRLAKCLAESREGARVLVVCAETTTVVFRAPSEEHQDDLVTQALFADGASAVIVGVDPNEAAHERASFIIVSASQVLLPDSAGAIGGHVSEGGLTATLHRDVPQIVSKNVGKCLEEAFTPFGISDWNSIFWVPHAGGRAILDQVEERVGLKPEKLSVSRHVLAEYGNMSSVCVHFALDEMRKKSAKEAKATTGEGLEWGVLFGFGPGLTVETVVLHSVPI | 1874 µM | 606 µM | 653 µM | 615 µM | over two-fold |
| AFU07718.1: Type-III PKS enzyme from Paphiopedilum micranthum (protein, listed as Paphiopedilum micranthum, (1)..(394) AFU07718.1) MPGLENRKKVEAPIRAEGLATIMAIGRANPPNAMEQSTFPDFYFRVTNSEHLVGLKKKFQRICEKTAIRRRHFVWNEEILNANPCLRTHMEPSLNVRQKIAVAEIPKMGAEAASRAIEEWGQSKSRITHLIFCTTSGMDLPGADYQLTRILGLNPNVQRVMLYQQGCFAGGTVLRLAKCLAESQKGARVLVVCSETTAVLVRAPSEEYHDDLVTQALFADGASALIVGADPDEEAKERPIFTIVSTTQVILPDSDGAIGGHLGEGGLTATLHRDVPLIISKNVSKCLEEAFTPLGISDWNSIFWAPHPGGRAILDQVEERASLKPEKLWASRHVLTEYGNMSSVCVHFVLDEIRKRSAKEGKATTGEGFDWGVLFGFGPGLTVETVVLRSVPLN | 948 µM | 159 µM | 152 µM | 638 µM |  |
| AHH25569.1: Type-III PKS enzyme from Bletilla striata (protein, listed as Bletilla striata, (1)..(390) AHH25569.1) MPSLDSIKKAPRADGIASILAIGRANPDNIIEQSAYPDFYFRVTNSEHLVDLKKKFQRICEKTAIRKRHFVWNEEFLTSNPSFSTFMDKSLYVRQEVAIREIPKLGAKAATKAIEDWGQPKSRISHLIFCTTSGMDLPGADYQLTQILGLNPNVERLMLYEQGCFAGGTTLRLAKCLAESRKGARVLVVCAETTTVLFRAPSEEHQDDLVTQALFADGASALIVGADPDEAADERASFVIVSTSQVLLPDTAGAIGGHVSEGGLLATLHRDVPQIVTKNVGKCLEEAFTPFGISDWNSIFWVPHPGGRAILDQVEERVGLKPEKLSVSRHVLAEYGNMSSVCVHFALDEMRKRSANEGKPTTGEGLEWGVLFGFGPGLTVETVVLRSVPL | 320 µM | 93 µM | 98 µM | 129 µM |  |
| XP_020704102.1: Type-III PKS enzyme from Dendrobium catenatum (protein, listed as Dendrobium catenatum, (1)..(388) XP_020704102.1) MPSLESIKKAPRADGFASILAIGRANPENFIEQSAYPDLFFRITKSEHLVDLKNKFKRICDKTAIRKRHFVWTEEFITANPCFSTFMEKSLNIRQEVAIREIPKLGAEAAAKAIQEWGQPKSRITHLIFCTRSGMGLPGPDYQLTQILGLNPNVERVMIYQQGCFAGGTTLRLAKCLAESHKGARVLVVCAETSTVLFRAPSMEHQEDLVTQALFADGASALIVGADPDETADEHASFVIVSTSQVLLPESAGAIGGHVSEGGFLPMIHRDVPQIVSKNIGKCLEEAFTPLGIMDWNSIFWVPHPGGRAILDQLDERVGLKPEKLFISRHVLKEYGNMSSASVHFALDEMRKWSAKEGTTGEGLEWGVLFGFGPGVTVDTVVLRSVPI | 148 µM | 26 µM | 19 µM | 102 µM |  |
